According to US20230265151A1, “GIP/GLP1 CO-AGONIST COMPOUNDS” (priority 2020, published 2023):
*1 amine or outer side, *2 acyl side, *3 side chain or, on linkers, in order; H or OH if unused. Where no end group is shown, it is not given here. Side-chain parts run from the residue outwards. [ ]: non-standard residue; d: D form. The star is where a group is joined. Decanoyl(10-(4-HOOC-PhO)) = O=C(O)c1ccc(OCCCCCCCCCC(=O)*)cc1; αMePhe(2-F) = C[C@](N)(Cc1ccccc1F)C(=O)O; γGlu = O=C(O)[C@H](CCC(=O)[*:2])N[*:1]; C14 diacid = O=C(O)CCCCCCCCCCCCC(=O)*; αMeY = C[C@](N)(Cc1ccc(O)cc1)C(=O)O; αMeL = CC(C)C[C@](C)(N)C(=O)O; Nle = CCCC[C@H](N)C(=O)O; Orn = NCCC[C@H](N)C(=O)O; AEEA = NCCOCCOCC(=O)O; Om = not defined here; Aib = CC(C)(N)C(=O)O

T1: human GIP receptor (human, UniProt P48546 22-466)
T1 sequence (looked up): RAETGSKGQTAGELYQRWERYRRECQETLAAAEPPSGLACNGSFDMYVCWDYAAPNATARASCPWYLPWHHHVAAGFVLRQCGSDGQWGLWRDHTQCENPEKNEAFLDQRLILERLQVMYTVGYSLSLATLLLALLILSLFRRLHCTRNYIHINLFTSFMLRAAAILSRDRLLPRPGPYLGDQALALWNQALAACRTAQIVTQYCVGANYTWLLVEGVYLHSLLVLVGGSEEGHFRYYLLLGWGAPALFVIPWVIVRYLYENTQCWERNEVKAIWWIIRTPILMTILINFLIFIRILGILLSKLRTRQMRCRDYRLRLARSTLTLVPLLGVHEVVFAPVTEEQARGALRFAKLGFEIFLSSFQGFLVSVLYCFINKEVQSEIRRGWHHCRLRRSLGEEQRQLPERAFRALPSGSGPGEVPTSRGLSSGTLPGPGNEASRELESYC

T2: human GIP receptor (human) (UniProt P48546)
T2 sequence (looked up): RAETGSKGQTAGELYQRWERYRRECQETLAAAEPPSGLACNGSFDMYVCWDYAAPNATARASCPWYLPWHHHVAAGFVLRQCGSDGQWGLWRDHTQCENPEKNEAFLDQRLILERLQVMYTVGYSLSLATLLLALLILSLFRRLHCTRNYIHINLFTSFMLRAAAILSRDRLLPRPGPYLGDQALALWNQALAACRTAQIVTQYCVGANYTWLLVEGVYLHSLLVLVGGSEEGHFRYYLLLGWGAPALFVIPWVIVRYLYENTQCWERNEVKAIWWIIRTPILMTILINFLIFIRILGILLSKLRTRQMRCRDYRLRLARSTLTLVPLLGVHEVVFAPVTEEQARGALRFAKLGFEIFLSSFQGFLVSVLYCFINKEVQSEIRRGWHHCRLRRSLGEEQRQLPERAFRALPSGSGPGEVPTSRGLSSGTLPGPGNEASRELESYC


Tests used:
Test in all cases: cell-based or functional assay
human GIP receptor = target: T1, human GIP receptor
human GLP-1 receptor = human GLP-1 receptor (human, UniProt P43220 24-463)
human glucagon receptor = human glucagon receptor (human, UniProt P47871 26-477)
hGLP-1R = hGLP-1R (Homo sapiens, UniProt P43220)
[1] = target: T2, human GIP receptor (human)
[2] = target: human glucagon receptor (human) (UniProt P47871)

human glucagon receptor, sequence (P47871 26-477): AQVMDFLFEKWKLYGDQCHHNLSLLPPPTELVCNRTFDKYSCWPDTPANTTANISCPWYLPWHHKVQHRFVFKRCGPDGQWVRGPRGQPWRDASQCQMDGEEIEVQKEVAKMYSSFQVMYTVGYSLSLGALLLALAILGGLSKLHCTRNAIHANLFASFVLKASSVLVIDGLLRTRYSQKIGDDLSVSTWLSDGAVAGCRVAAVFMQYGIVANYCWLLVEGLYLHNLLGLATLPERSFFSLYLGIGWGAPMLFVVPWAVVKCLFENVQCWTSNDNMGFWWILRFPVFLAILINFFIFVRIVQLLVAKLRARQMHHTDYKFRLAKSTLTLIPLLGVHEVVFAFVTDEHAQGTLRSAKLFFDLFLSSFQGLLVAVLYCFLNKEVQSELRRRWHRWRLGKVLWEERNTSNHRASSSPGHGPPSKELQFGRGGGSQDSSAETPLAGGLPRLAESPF

Row | Binder | cAMP EC50 (1.0% HSA) (human GIP receptor) [nM] | cAMP Emax (1.0% HSA) (human GIP receptor) [%] | cAMP EC50 (1.0% HSA) (human GLP-1 receptor) [nM] | cAMP EC50 (1.0% HSA) (human glucagon receptor) [nM] | cAMP EC50 (hGLP-1R) [nM] | cAMP Emax (hGLP-1R) [%] | cAMP EC50 [1] [nM] | cAMP Emax [1] [%] | cAMP EC50 [2] [nM] | cAMP Emax (1.0% HSA) (human GLP-1 receptor) [%]
1 | Y[Aib]EGT[αMePhe(2-F)]TSD[Nle]SI[αMeL]LD[Orn]QAQ[Aib][Orn]FIK([AEEA-AEEA-γGlu-C14 diacid])[αMeY]LIK([AEEA-AEEA-γGlu-C14 diacid])GGPSSGAPPPS-NH2 [Example 490] | 0.976 | 97.1 | 7.68 | > 9950 | – | – | – | – | – | –
2 | Y[Aib]EGT[αMePhe(2-F)]TSDV[Aib]I[αMeL]LD[Orn]K([AEEA-AEEA-γGlu-Decanoyl(10-(4-HOOC-PhO))])AQ[Aib][Om]FI[dE][αMeY]LIK([AEEA-AEEA-γGlu-Decanoyl(10-(4-HOOC-PhO))])GGPSSGAPPPS-NH2 (reading uncertain; also: printed as Y-Aib-EGT-αMeF(2F)-TSDV-Aib-I-αMeL-LD-Orn-K((2-[2-(2-Amino-ethoxy)-ethoxy]-acetyl)2-(γ-Glu)-(10-(4-carboxyphenoxy)decanoyl))AQ-Aib-Om-FI-(D-Glu)-αMeY-LIK((2-[2-(2-Amino-ethoxy)-ethoxy]-acetyl)2-(γ-Glu)-(10-(4-carboxyphenoxy)decanoyl))GGPSSGAPPPS-NH2) [Example 353] | 5.35 | 84.8 | 7.12 | > 9950 | 0.203 | 98 | 0.0249 | 98.2 | > 9950 | 92.5
3 | YXEGTXTSDXXIXLDXKAQXEFIXXLIEGGPSSGAPPPSK (Y-Aib-EGT-αMeF(2F)-TSD-4Pal-Aib-I-αMeL-LD-Orn-K((2-[2-(2-Amino-ethoxy)-ethoxy]-acetyl)2-(γ-Glu)-CO-(CH2)12-CO2H)AQ-Aib-EFI-(D-Glu)-αMeY-LIEGGPSSGAPPPSK((2-[2-(2-Amino-ethoxy)-ethoxy]-acetyl)2-(γ-Glu)-CO-(CH2)12-CO2H)-NH2) [Example 359] | 1.58 | 81 | 40.5 | > 9950 | 1.18 | 104 | 0.0261 | 103 | > 10100 | 95.1
4 | YXEGTXTSDXXIXLDXKAQXEFIXXLIEGGPSSGAPPPSK (Y-Aib-EGT-αMeF(2F)-TSD-4Pal-Aib-I-αMeL-LD-Orn-K((2-[2-(2-Amino-ethoxy)-ethoxy]-acetyl)-(y-Glu)-(10-(4-carboxyphenoxy)decanoyl))AQ-Aib-EFI-(D-Glu)-αMeY-LIEGGPSSGAPPPSK((2-[2-(2-Amino-ethoxy)-ethoxy]-acetyl)-(γ-Glu)-(10-(4-carboxyphenoxy)decanoyl))-NH2) [Example 362] | 0.936 | – | 29.9 | > 9950 | 0.34 | 109 | 0.0131 | – | > 10100 | –
5 | YXEGTXTSDYXIXLDXIAQXXFIKXLIKGGPSSGAPPPS (Y-Aib-EGT-αMeF(2F)-TSDY-Aib-I-αMeL-LD-Orn-IAQ-Aib-Orn-FIK((2-[2-(2-Amino-ethoxy)-ethoxy]-acetyl)3-(γ-Glu)-CO-(CH2)12-CO2H)-αMeY-LIK((2-[2-(2-Amino-ethoxy)-ethoxy]-acetyl)3-(γ-Glu)-CO-(CH2)12-CO2H)GGPSSGAPPPS-NH2) [Example 478] | 0.517 | – | 6.16 | > 9950 | – | – | – | – | – | 108
6 | YXEGTXTSDXSIXLDXQAQXXFIKXLIKGGPSSGAPPPS (Y-Aib-EGT-αMeF(2F)-TSD-hY-SI-αMeL-LD-Orn-QAQ-Aib-Orn-FIK((2-[2-(2-Amino-ethoxy)-ethoxy]-acetyl)2-(γ-Glu)-CO-(CH2)12-CO2H)-αMeY-LIK((2-[2-(2-Amino-ethoxy)-ethoxy]-acetyl)2-(γ-Glu)-CO-(CH2)12-CO2H)GGPSSGAPPPS-NH2) [Example 491] | 1.08 | 87.5 | 5.51 | > 9950 | – | – | – | – | – | –
7 | YXEGTXTSDYXIXLDXQAQXXFIKXLIKGGPSSGAPPPS (Y-Aib-EGT-αMeF(2F)-TSDY-Aib-I-αMeL-LD-Orn-QAQ-Aib-Orn-FIK((2-[2-(2-Amino-ethoxy)-ethoxy]-acetyl)2-(γ-Glu)2-CO-(CH2)12-CO2H)-αMeY-LIK((2-[2-(2-Amino-ethoxy)-ethoxy]-acetyl)2-(γ-Glu)2-CO-(CH2)12-CO2H)GGPSSGAPPPS-NH2) [Example 480] | 0.29 | – | 2.65 | > 9950 | – | – | – | – | – | 104
8 | YXEGTXTSDYXIXLDXQAQXXFIKXLIKGGPSSGAPPPS (Y-Aib-EGT-αMeF(2F)-TSDY-Aib-I-αMeL-LD-Orn-QAQ-Aib-Orn-FIK((2-[2-(2-Amino-ethoxy)-ethoxy]-acetyl)2-(γ-Glu)--C10_4CP)-αMeY-LIK((2-[2-(2-Amino-ethoxy)-ethoxy]-acetyl)2-(γ-Glu)--C10_4CP)GGPSSGAPPPS-NH2) [Example 492] | 0.371 | 88.7 | 4.31 | > 9950 | – | – | – | – | – | 104
9 | YXEGTXTSDYXIXLDXQAQXXFIKXLIKGGPSSGAPPPS (Y-Aib-EGT-αMeF(2F)-TSDY-Aib-I-αMeL-LD-Orn-QAQ-Aib-Orn-FIK((2-[2-(2-Amino-ethoxy)-ethoxy]-acetyl)3-(γ-Glu)-CO-(CH2)12-CO2H)-αMeY-LIK((2-[2-(2-Amino-ethoxy)-ethoxy]-acetyl)3-(γ-Glu)-CO-(CH2)12-CO2H)GGPSSGAPPPS-NH2) [Example 479] | 0.196 | 89.5 | 2.55 | > 9950 | – | – | – | – | – | –
10 | YXEGTXTSDYXIXLDXIAQXXFIKXLIKGGPSSGAPPPS (Y-Aib-EGT-αMeF(2F)-TSDY-Aib-I-αMeL-LD-Orn-IAQ-Aib-Orn-FIK((2-[2-(2-Amino-ethoxy)-ethoxy]-acetyl)3-(γ-Glu)--(10-(4-carboxyphenoxy)decanoyl))-αMeY-LIK((2-[2-(2-Amino-ethoxy)-ethoxy]-acetyl)3-(γ-Glu)--(10-(4-carboxyphenoxy)decanoyl))GGPSSGAPPPS-NH2) [Example 481] | 0.467 | – | 6.16 | > 9950 | – | – | – | – | – | 112
11 | YXEGTXTSDXXIXLDXKAQXKFIXXLIEGGPSSGAPPPS (Y-Aib-EGT-αMeF(2F)-TSD-4Pal-Aib-I-αMeL-LD-Orn-K((2-[2-(2-Amino-ethoxy)-ethoxy]-acetyl)2-(γ-Glu)-CO-(CH2)12-CO2H)AQ-Aib-K((2-[2-(2-Amino-ethoxy)-ethoxy]-acetyl)2-(γ-Glu)-CO-(CH2)12-CO2H)FI-(D-Glu)-αMeY-LIEGGPSSGAPPPS-NH2) [Example 357] | 1.19 | – | 36.2 | > 9950 | 0.649 | 107 | 0.011 | 99.9 | > 10100 | 92.8
12 | YXEGTXTSDXXIXLDXQAQXXFIKXLIKGGPSSGAPPPS (Y-Aib-EGT-αMeF(2F)-TSD-4Pal-Aib-I-αMeL-LD-Orn-QAQ-Aib-Orn-FIK((2-[2-(2-Amino-ethoxy)-ethoxy]-acetyl)2-(γ-Glu)2-CO-(CH2)12-CO2H)-αMeY-LIK((2-[2-(2-Amino-ethoxy)-ethoxy]-acetyl)2-(γ-Glu)2-CO-(CH2)12-CO2H)GGPSSGAPPPS-NH2) [Example 474] | 0.156 | – | 1.1 | > 9950 | – | – | – | – | – | –
13 | YXEGTXTSDXXIXLDXQAQXXFIKXLIKGGPSSGAPPPS (Y-Aib-EGT-αMeF(2F)-TSD-4Pal-Aib-I-αMeL-LD-Orn-QAQ-Aib-Orn-FIK((2-[2-(2-Amino-ethoxy)-ethoxy]-acetyl)2-(γ-Glu)2--(10-(4-carboxyphenoxy)decanoyl))-αMeY-LIK((2-[2-(2-Amino-ethoxy)-ethoxy]-acetyl)2-(γ-Glu)2--(10-(4-carboxyphenoxy)decanoyl))GGPSSGAPPPS-NH2) [Example 475] | 0.211 | – | 1.44 | > 9950 | – | – | – | – | – | –
14 | YXEGTXTSDXXIXLDXQAQXXFIKXLIKGGPSSGAPPPS (Y-Aib-EGT-αMeF(2F)-TSD-4Pal-Aib-I-αMeL-LD-Orn-QAQ-Aib-Orn-FIK((2-[2-(2-Amino-ethoxy)-ethoxy]-acetyl)-(γ-Glu)3-CO-(CH2)12-CO2H)-αMeY-LIK((2-[2-(2-Amino-ethoxy)-ethoxy]-acetyl)-(γ-Glu)3-CO-(CH2)12-CO2H)GGPSSGAPPPS-NH2) [Example 486] | 0.239 | – | 2 | > 9950 | – | – | – | – | – | –
